Measurements taken from article PMC7336386, “Methylation of MdMYB1 locus mediated by RdDM pathway regulates anthocyanin biosynthesis in apple”.

T1: MdAGO4-1 (Malus domestica? (apple), UniProt A0A498JG28 46-911)
T1 sequence: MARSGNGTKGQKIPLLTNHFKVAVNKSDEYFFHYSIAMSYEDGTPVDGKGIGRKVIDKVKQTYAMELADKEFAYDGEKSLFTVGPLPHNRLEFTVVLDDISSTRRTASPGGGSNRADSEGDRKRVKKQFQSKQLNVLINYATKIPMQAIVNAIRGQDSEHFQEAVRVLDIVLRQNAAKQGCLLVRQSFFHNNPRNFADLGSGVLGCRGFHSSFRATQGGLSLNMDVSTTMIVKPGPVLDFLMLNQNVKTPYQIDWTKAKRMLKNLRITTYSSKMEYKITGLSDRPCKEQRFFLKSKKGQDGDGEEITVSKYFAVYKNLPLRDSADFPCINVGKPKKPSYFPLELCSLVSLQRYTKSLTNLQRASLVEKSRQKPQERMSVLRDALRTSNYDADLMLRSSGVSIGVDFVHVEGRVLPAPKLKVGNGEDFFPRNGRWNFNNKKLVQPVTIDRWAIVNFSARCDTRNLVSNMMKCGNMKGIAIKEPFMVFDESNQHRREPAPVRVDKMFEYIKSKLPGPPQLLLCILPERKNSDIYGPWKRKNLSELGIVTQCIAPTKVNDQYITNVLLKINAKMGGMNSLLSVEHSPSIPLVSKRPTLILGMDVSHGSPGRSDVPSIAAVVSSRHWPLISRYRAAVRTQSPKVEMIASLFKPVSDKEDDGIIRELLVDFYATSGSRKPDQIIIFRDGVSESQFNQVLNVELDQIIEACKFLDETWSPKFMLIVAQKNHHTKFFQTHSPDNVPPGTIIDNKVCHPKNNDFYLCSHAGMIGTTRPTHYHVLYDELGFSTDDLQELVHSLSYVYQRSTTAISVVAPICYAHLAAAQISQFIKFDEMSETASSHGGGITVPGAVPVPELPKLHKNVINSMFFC

T2: MdAGO4-1 without PAZ domain (Malus domestica? (apple), UniProt A0A498JG28 46-274+435-911, internal_change)
T2 sequence: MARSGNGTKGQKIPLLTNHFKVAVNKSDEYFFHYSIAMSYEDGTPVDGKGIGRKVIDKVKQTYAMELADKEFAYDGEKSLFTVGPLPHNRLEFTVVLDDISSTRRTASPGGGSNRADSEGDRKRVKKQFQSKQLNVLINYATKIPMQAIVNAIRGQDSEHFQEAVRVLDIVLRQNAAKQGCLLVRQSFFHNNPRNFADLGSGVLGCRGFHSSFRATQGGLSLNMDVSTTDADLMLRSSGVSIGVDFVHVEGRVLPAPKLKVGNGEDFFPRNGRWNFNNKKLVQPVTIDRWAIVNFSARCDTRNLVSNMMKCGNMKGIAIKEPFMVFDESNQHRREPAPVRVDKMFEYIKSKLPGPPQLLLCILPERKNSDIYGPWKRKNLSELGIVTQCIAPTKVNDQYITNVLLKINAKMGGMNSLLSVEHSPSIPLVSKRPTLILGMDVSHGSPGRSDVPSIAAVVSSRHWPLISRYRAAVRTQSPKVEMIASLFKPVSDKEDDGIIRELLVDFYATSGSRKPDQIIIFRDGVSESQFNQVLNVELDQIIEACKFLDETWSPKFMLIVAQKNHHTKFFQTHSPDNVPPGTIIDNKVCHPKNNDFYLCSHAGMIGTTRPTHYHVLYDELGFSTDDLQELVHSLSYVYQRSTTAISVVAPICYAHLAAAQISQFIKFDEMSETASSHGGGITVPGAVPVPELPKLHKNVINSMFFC

B1: MdMYB1 probe2 (dsDNA)
DNA 1: TGTCAGTGTTTGCTTCTGTGGATATCAGACATGCACGTCACTGGCCTT
DNA 2: AAGGCCAGTGACGTGCATGTCTGATATCCACAGAAGCAAACACTGACA
B2: 2-m4 (dsDNA)
DNA 1: TGTCAGTGTTTGCTTCTGTGGATATCAGACCTGGCCTT
DNA 2: AAGGCCAGGTCTGATATCCACAGAAGCAAACACTGACA
B3: 2-m1 (probe2 without m1 region) (dsDNA)
DNA 1: TGCTTCTGTGGATATCAGACATGCACGTCACTGGCCTT
DNA 2: AAGGCCAGTGACGTGCATGTCTGATATCCACAGAAGCA
B4: 2-m3 (m3 region … not intact) (dsDNA)
DNA 1: TGTCAGTGTTTGCTTCTGTGATGCACGTCACTGGCCTT
DNA 2: AAGGCCAGTGACGTGCATCACAGAAGCAAACACTGACA
B5: 2-m2 (dsDNA)
DNA 1: TGTCAGTGTTGATATCAGACATGCACGTCACTGGCCTT
DNA 2: AAGGCCAGTGACGTGCATGTCTGATATCAACACTGACA
B6: 2-m5 (dsDNA)
DNA 1: TGTCAGTGTTTGCTTCTGTGGATATCAGACATGCACGTCA
DNA 2: TGACGTGCATGTCTGATATCCACAGAAGCAAACACTGACA
B7: MdGST probe (dsDNA)
DNA 1: TTTTTTATTAAATAAAAAAAGATATCATGCGACAAACATTTATTAAATTG
DNA 2: CAATTTAATAAATGTTTGTCGCATGATATCTTTTTTTATTTAATAAAAAA
B8: MdFLS probe (dsDNA)
DNA 1: GTAAAGGGAGTGTGACCATAATATCAGATACACAAACGTCCAAAGCCC
DNA 2: GGGCTTTGGACGTTTGTGTATCTGATATTATGGTCACACTCCCTTTAC

The binders below were run against T1, MdAGO4-1 (assay: EMSA; LightShift Chemiluminescent EMSA Kit (Thermo); buffer, salt, pH and temperature not stated). Conditions: protein: recombinant; tags: His (pET32a).
B1: binds.
B2: binds.
B3: binds.
B4: no binding.
B5: binds.
B6: binds.

Same assay, conditions: protein: recombinant; tags: His (pET32a); blunt
B7: no binding.
B8: binds.

These binders were tested against T2, MdAGO4-1 without PAZ domain in the same assay as above. Conditions: protein: recombinant.
B1: binds.
